Experimental findings from patent publication US20030027314A1 are described below.

Assay [1] concerns the target c-Jun (unmodified). Description: thermal melting curve, mixture (FIG. 4).
The target in assay [2] is bHLH MAX (unmodified Max). The experiment in a line: homodimer, study of FIG. 9 (method not given).
Assay [3] concerns the target c-Myc bHLH protein (murine) (UniProt P01108). Description: heterodimer with c-Myc, study of FIG. 9 (method not given).
Assay [4] has as its target c-Jun (unmodified). The experiment in a line: from thermal melts, Kd at 37 °C (FIG. 4).
Target sequence in this assay (chain, from a related filing, as listed by the source): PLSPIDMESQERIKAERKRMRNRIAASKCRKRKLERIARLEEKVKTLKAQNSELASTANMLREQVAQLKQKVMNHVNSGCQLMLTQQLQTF

Chain of c-Fos (unmodified) (P01100 other isoform, or with tags, fused parts or gaps limits assumed): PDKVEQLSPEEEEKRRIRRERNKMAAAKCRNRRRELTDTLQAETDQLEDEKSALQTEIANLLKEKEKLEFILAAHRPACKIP
Chain of bHLH MAX (unmodified Max) (P61244 22-113): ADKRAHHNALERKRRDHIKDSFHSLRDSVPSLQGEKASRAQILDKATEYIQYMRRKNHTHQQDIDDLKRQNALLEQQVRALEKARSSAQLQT

What is called Tm is the temperature at the midpoint of the melting transition. For the substance “0heptad-Fos (c-Fos with the basic region deleted)”, the Tm with c-Jun (unmodified) [1] amounted to 53 °C.

A word on the Kd: it is the constant that tells how readily two partners part at equilibrium. As to bHLH MAX (unmodified Max), the Kd worked out at 6 µM in assay [2] and 0.03 µM in assay [3]. In the case of “c-Fos (unmodified) (from UniProt P01100 128-207)”, in the assay with c-Jun (unmodified) [1], the Tm was 50 °C. Moreover, the Kd in the assay with c-Jun (unmodified) [4] amounted to 0.2 µM.
